# Laboratory results: US20190135895A1 (published 2019)
# How the values were obtained:
# [1] = biological target: truncated monomeric His-tagged human FcRn (human) (UniProt P55899); assay: SPR (BIAcore 3000), hFcRn injected over immobilized HSA-GST variant, pH 6.0, 1:1 Langmuir model
# WT HSA-GST = biological target: T1, WT HSA-GST (human, UniProt P08515 1-218 = GST); assay: ELISA, mFcRn captured on rabbit IgG, pH 6.0
# T1 construct: Secreted from HEK293E cells; also called WT-GST; WT HSA fusion
# Sequence of truncated monomeric His-tagged human FcRn (human) (P55899 24-297 limits assumed, chain 1 of 2): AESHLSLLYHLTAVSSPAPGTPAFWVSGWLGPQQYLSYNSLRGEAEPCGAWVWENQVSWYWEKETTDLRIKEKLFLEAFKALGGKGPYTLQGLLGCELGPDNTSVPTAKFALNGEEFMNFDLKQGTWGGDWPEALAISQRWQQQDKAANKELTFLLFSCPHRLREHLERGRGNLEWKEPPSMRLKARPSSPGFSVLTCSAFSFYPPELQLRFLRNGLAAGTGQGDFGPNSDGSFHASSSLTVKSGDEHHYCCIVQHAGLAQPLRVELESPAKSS
# Sequence of truncated monomeric His-tagged human FcRn (human) (chain, as listed by the source limits assumed, chain 2 of 2): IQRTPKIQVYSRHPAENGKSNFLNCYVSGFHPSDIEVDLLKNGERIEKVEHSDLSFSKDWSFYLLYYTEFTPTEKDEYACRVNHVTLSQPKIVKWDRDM
Molecule,Kd [1],binding result (WT HSA-GST)
HSA E505Q-GST (from UniProt P08515 1-218),23.1 nM,–
"truncated monomeric His-tagged mouse FcRn (receptor, extracellular domain; Made in a Baculovirus system; also called mFcRn; soluble mFcRn; not shown: His tag) chain 1: SETRPPLMYHLTAVSNPSTGLPSFWATGWLGPQQYLTYNSLRQEADPCGAWMWENQVSWYWEKETTDLKSKEQLFLEALKTLEKILNGTYTLQGLLGCELASDNSSVPTAVFALNGEEFMKFNPRIGNWTGEWPETEIVANLWMKQPDAARKESEFLLNSCPERLLGHLERGRRNLEWKEPPSMRLKARPGNSGSSVLTCAAFSFYPPELKFRFLRNGLASGSGNCSTGPNGDGSFHAWSLLEVKRGDEHHYQCQVEHEGLAQPLTVDLDSSARSS chain 2: IQKTPQIQVYSRHPPENGKPNILNCYVTQFHPPHIEIQMLKNGKKIPKVEMSDMSFSKDWSFYILAHTEFTPTETDTYACRVKHASMAEPKTVYWDRDM",–,no binding
